{
  "source": "paper PMC6900184",
  "about": "“The Escherichia coli MarA protein regulates the ycgZ‐ymgABC operon to inhibit biofilm formation”",
  "binders": {"B1": {"name": "ycgZ.1m (dsDNA)", "DNA 1": "AATTCATATGCATTACGTCTAATTCGAAAAAATTAATTTATCATTCTGTACACATATTTCGTACAAGTTTGCTATTGTTACTTCACTTAACATTGATTAACATTTTTAACAGAGGCGTAGCATGA", "DNA 2": "AGCTTCATGCTACGCCTCTGTTAAAAATGTTAATCAATGTTAAGTGAAGTAACAATAGCAAACTTGTACGAAATATGTGTACAGAATGATAAATTAATTTTTTCGAATTAGACGTAATGCATATG"}},
  "molecular_target": "T1, MarA (Escherichia coli, UniProt P0ACH5 1-127)",
  "T1 sequence": "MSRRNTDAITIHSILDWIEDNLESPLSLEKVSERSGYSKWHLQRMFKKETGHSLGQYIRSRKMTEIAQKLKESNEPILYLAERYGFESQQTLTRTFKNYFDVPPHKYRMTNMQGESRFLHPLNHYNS",
  "test": "EMSA; MarA 0.4, 1.2, 2.0 uM; EMSA: 20 mM Tris pH 7, 10 mM MgCl2, 100 mM EDTA (so in the source), 120 mM KCl; 5% polyacrylamide gel; temperature not stated",
  "settings": "protein: recombinant; tags: N-terminal His6 tag (pET28a) removed by thrombin; label: 5'-32P; 5' overhang 4 nt at both ends (EcoRI, HindIII)",
  "data": [
    {"binder": "B1", "values": [
      {"measurement": "binding result", "value": "no binding"}
    ]}
  ]
}
